Source: US20030044958A1 (ICOS, published 2003)
Values belong to the molecule of their own block, whether it stands above or below them.

Assays:
ICAM-1/Fc = ICAM-1/Fc (UniProt P05362); assay: cell-based or functional assay
VCAM-1/Fc = VCAM-1/Fc (UniProt P19320); assay: cell-based or functional assay
[1] = biological target: T1, His3E9-tagged β2 integrin cytoplasmic tail protein (UniProt P05107 724-769, not fully specified); assay: competition binding assay, competitor at 0.001 to 4 µM against iodinated IRP-1 on immobilized β2 C-tail
T1 construct: domain: cytoplasmic tail; Expressed in E. coli (pET15b) or Saccharomyces; immobilized on Scintistrip plates; also called β2 C-tail; β2 integrin C-tail; not shown: His3E9 tag
T1 chain (looked up): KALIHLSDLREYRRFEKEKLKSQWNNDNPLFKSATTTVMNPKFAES
Procedure: (§1) The integrin C-tails were immobilized onto 96-well microtiter Scintistrip™ (Wallac) plates at concentrations between […] in volumes of 50-100 μl bicarbonate, pH 9.6, per well and were incubated at 4° C. overnight. Plates were dried and blocked in 350 μl/well sterile-filtered 1-2% Bovine Serum Albumin (BSA) dissolved in binding assay buffer and were incubated at room temperature for 1-2 hours. The wells were washed 3 times in binding assay buffer and dried just prior to addition of IRPs.
The binding assay format was either a competition/inhibition binding assay or a saturation binding assay. In the competition binding assay, radiolabeled IRPs were diluted to 25-100 nM in binding assay buffer with one potential modulator of binding (unlabelled IRPs, soluble C-tails or non-specific control polypeptides such as BSA). The assay was initiated with addition of 100 μl labeled IRPs/potential modulator solution to the blocked Scintistrip® wells (50,000-200,000 cpm/well), then incubated one hour at room temperature (22-24° C.) and stopped by rapidly washing in binding assay buffer three to five times. The saturation binding assays were performed similarly, except that a constant 1:20 ratio of radiolabeled:unlabeled IRPs were tested over a total concentration range of 0.01-30 μM. The plates were dried and scintillation was measured on a Wallac Model 1450 liquid scintillation counter after the detectors were normalized. Interwell crosstalk was corrected for with a test Scintistrip™ plate, containing in the G11, 100 μl of 25-100 nM radiolabeled IRP captured by anti-IRP monoclonal antibody 200A coated in the well at 20 μg/ml in bicarbonate buffer. The incubation times and conditions for the test plate were identical to the binding assay above.

[2] = biological target: T2, Bovine Serum Albumin (BSA) (bovine, UniProt P02769 25-607); assay: radiolabelled IRP-1 on BSA-blocked Scintistrip wells
T2 construct: also called control peptide
Procedure: as §1
The binding assay format was either a competition/inhibition binding assay or a saturation binding assay. In the competition binding assay, radiolabeled IRPs were diluted to 25-100 nM in binding assay buffer with one potential modulator of binding (unlabelled IRPs, soluble C-tails or non-specific control polypeptides such as BSA). […] The plates were dried and scintillation was measured on a Wallac Model 1450 liquid scintillation counter after the detectors were normalized. […]
Binding was measured as counts of radiolabeled IRPs found in C-tail-coated wells above counts found in BSA-coated wells. Specific binding was assessed as counts found in C-tail-coated wells which were reduced with added unlabelled IRPs or soluble C-tails.

Sequence of VCAM-1/Fc (P19320 25-698 limits assumed): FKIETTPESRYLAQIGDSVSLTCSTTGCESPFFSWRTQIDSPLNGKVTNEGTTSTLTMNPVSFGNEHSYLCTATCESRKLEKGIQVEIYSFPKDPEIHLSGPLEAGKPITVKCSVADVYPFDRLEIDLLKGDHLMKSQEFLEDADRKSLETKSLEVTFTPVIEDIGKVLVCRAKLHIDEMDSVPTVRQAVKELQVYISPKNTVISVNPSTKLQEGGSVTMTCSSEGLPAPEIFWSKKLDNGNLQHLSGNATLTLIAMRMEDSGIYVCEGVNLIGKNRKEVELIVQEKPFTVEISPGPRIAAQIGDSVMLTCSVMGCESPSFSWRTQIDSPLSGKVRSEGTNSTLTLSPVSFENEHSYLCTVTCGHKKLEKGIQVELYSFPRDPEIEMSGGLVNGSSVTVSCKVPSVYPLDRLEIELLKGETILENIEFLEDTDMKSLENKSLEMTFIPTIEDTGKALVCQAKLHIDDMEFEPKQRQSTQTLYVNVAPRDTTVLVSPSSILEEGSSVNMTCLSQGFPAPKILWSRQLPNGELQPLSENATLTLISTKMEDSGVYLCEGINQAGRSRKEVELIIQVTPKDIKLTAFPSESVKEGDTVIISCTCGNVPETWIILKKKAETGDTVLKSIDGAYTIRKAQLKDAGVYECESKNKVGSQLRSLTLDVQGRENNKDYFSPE
Sequence of ICAM-1/Fc (P05362 28-480 limits assumed): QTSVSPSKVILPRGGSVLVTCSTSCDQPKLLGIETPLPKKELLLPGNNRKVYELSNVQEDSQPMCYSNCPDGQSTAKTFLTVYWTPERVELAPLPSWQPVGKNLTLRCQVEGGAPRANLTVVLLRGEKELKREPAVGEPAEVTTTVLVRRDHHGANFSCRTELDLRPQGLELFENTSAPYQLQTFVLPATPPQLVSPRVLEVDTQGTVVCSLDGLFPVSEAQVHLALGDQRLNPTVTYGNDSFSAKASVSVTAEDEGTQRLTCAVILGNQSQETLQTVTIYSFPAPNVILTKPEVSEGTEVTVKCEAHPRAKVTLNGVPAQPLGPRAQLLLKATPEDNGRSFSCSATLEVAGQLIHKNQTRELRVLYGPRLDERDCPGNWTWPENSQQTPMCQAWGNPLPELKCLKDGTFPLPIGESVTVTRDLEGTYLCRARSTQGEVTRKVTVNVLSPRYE
T2 sequence (P02769 25-607 limits assumed): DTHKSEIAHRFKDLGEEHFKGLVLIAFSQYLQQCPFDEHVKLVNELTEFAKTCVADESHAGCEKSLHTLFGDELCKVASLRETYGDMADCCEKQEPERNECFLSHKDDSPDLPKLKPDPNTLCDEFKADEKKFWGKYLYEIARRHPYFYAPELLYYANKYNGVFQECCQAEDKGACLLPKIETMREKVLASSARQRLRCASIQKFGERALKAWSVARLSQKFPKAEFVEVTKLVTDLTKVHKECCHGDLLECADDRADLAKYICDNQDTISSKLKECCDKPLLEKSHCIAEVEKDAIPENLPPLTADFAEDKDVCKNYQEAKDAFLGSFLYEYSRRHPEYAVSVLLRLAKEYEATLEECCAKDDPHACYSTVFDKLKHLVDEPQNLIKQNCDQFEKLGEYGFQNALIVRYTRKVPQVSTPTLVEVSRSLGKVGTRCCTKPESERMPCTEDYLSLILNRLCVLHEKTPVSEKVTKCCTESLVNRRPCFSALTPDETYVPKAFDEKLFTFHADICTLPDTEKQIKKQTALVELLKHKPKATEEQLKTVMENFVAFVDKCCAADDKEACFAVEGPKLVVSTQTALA

Molecule: integrin α4β7 on JY or JY-8 cells (from UniProt P13612 34-1032; P26010 20-798) (receptor)
- IL-8 stimulated adhesion to VCAM-1 of JY-8 transfectants overexpressing B2-1 (VCAM-1/Fc): 50%
- static adhesion of JY-8 cells expressing only GFP (control) to immobilized VCAM-1, IL-8 against basal level (VCAM-1/Fc): 2 fold
- static adhesion of JY-8 cells to VCAM-1, PMA against basal level (VCAM-1/Fc): > 4 fold
- static adhesion to VCAM-1 (IL-8 induced) of JY-8 transfectants overexpressing IRP-2 against GFP transfectants (VCAM-1/Fc): 20%
- static adhesion to VCAM-1 of JY-8 transfectants overexpressing IRP-1, IL-8 stimulated (VCAM-1/Fc): 40%

B1: His-tagged IRP-1 (HisIRP-1), expressed in E. coli (other)
chain: MEDGVYEPPDLTPEERMELENIRRRKQELLVEIQRLREELSEAMSEVEGLEANEGSKTLQRNRKMAMGRKKFNMDPKKGIQFLVENELLQNTPEEIARFLYKGEGLNKTAIGDYLGEREELNLAVLHAFVDLHEFTDLNLVQALRQFLWSFRLPGEAQKIDRMMEAFAQRYCLCNPGVFQSTDTCYVLSFAVIMLNTSLHNPNVRDKPGLERFVAMNRGINEGGDLPEELLRNLYDSIRNEPFKIPEDDGNDLTHTFFNPDREGWLLKLGGRVKTWKRRWFILTDNCLYYFEYTTDKEPRGIIPLENLSIREVDDPRKPNCFELYIPNNKGQLIKACKTEADGRVVEGNHMVYRISAPTQEEKDEWIKSIQAAVSVDPFYEMLAARKKRISVKKKQEQP
notes: also called unlabelled IRP-1; clone S3 protein; not shown: N-terminal histidine tag encoded by pET15b
- percent decrease of iodinated IRP-1 binding [1]: ~75%

B2: iodinated IRP-1 (125I-labelled His-tagged IRP-1) (other)
chain: B1 chain
modifications: radiolabeled with 125I (Iodobead or lactoperoxidase/hydrogen peroxide method); positions not given
notes: also called radiolabeled IRP-1; not shown: His tag encoded by pET15b (non-kemptide-tagged)
- binding result [2]: no binding

The next lines start with the values.

- decrease in ICAM-1 adhesion of COS cells co-transfected with CD11a/CD18 and 3′HA B2-1, 5′HA B2-1, B2-1 PH or IRP-1 PH, 72 hours post-transfection, against vector control (ICAM-1/Fc): 50%
- decrease in static adhesion to ICAM-1 of JY-8 transfectants overexpressing IRP-1 against GFP control (basal and IL-8 stimulated) (ICAM-1/Fc): 40 to 50%
- highest flow rate at which ICAM-1 binding of JYIRP-2 cells was detected after static binding (ICAM-1/Fc): < 7.5 dynes/cm^2
- static adhesion of JY-8 cells expressing only GFP (control) to immobilized ICAM-1, IL-8 against basal level (ICAM-1/Fc): 3 to 4 fold
- static adhesion of JY-8 cells to ICAM-1, PMA against basal level (ICAM-1/Fc): > 4 fold
- static adhesion to ICAM-1 (basal or IL-8 induced) of JY-8 transfectants overexpressing IRP-2 against GFP transfectants (ICAM-1/Fc): 20%
Molecule: LFA-1 (CD11a/CD18) on JY, JY-8 or transfected COS cells (from UniProt P20701 26-1170; P05107 23-769) (receptor)

- percent decrease of iodinated IRP-1 binding [1]: ~75%
B3: His-tagged B2-1 (HisB2-1), expressed in E. coli (other, human, UniProt Q15438 1-398, looked up)
chain: MEEDDSYVPSDLTAEERQELENIRRRKQELLADIQRLKDEIAEVANEIENLGSTEERKNMQRNKQVAMGRKKFNMDPKKGIQFLIENDLLKNTCEDIAQFLYKGEGLNKTAIGDYLGERDEFNIQVLHAFVELHEFTDLNLVQALRQFLWSFRLPGEAQKIDRMMEAFAQRYCQCNNGVFQSTDTCYVLSFAIIMLNTSLHNPNVKDKPTVERFIAMNRGINDGGDLPEELLRNLYESIKNEPFKIPEDDGNDLTHTFFNPDREGWLLKLGGGRVKTWKRRWFILTDNCLYYFEYTTDKEPRGIIPLENLSIREVEDSKKPNCFELYIPDNKDQVIKACKTEADGRVVEGNHTVYRISAPTPEEKEEWIKCIKAAISRDPFYEMLAARKKKVSSTKRH
notes: mature; also called cytohesin-1; not shown: N-terminal histidine tag encoded by pET15b

- percent decrease of iodinated IRP-1 binding [1]: ~75%
B4: IRP-1 Sec7 domain (recombinant, soluble competitor) (other)
chain: KFNMDPKKGIQFLVENELLQNTPEEIARFLYKGEGLNKTAIGDYLGEREELNLAVLHAFVDLHEFTDLNLVQALRQFLWSFRLPGEAQKIDRMMEAFAQRYCLCNPGVFQSTDTCYVLSFAVIMLNTSLHNPNVRDKPGLERFVAMNRGINEGGDLPEELLRNLYDSIRNEPFKI
